Assay results: publication PMC11295067

Experiments:
[1] = molecular target: human Gq heterotrimer (human) (UniProt P50148)
[2] = molecular target: human Gi heterotrimer (human) (UniProt P63096)
Sequence of human Gi heterotrimer (human) (P63096 whole entry, looked up, one chain of several): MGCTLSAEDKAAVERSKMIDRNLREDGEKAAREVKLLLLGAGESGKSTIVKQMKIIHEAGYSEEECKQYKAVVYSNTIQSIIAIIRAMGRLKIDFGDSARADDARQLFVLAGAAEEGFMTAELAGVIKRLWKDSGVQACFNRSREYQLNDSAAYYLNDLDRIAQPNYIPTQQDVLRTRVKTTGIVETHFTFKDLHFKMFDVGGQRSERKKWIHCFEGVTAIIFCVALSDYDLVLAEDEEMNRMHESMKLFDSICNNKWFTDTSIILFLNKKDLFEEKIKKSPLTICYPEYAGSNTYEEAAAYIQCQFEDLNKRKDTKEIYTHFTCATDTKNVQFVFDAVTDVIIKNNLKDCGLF

Sequence of human Gq heterotrimer (human) (P50148 whole entry, looked up, one chain of several): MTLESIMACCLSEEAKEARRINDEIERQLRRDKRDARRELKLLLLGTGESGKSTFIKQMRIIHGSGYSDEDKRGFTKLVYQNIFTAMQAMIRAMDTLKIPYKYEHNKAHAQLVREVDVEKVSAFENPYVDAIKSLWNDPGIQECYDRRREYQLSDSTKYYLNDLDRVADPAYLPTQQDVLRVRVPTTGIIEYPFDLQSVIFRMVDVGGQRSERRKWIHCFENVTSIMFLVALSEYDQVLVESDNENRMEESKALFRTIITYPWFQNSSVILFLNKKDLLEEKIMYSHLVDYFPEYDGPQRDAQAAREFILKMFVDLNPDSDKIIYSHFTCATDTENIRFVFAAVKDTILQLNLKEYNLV

Substance: Jumping Spider Rhodopsin-1 (JSR1) reconstituted with 9-cis retinal (receptor)
- GTPase-Glo assay: GTP depletion by Gq heterotrimer with JSR1/9-cis retinal, after illumination [1]: 44%
- GTPase-Glo assay: GTP depletion by Gq heterotrimer with JSR1/9-cis retinal, without illumination [1]: 7%
- GTPase-Glo assay: GTP depletion by Gi heterotrimer with JSR1/9-cis retinal, after illumination [2]: 92%
- GTPase-Glo assay: GTP depletion by Gi heterotrimer with JSR1/9-cis retinal, without illumination [2]: 57%
